From article PMC10016340 come the findings set out here.

In one assay the target is Cofilin-1 (human) (UniProt P23528). Put plainly: SPR.
Assay [1] deals with Ubiquitin carboxyl-terminal hydrolase isozyme L1 (UCH-L1) (human) (UniProt P09936). The assay can be described thus: SPR.
Ubiquitin carboxyl-terminal hydrolase isozyme L1 (UCH-L1) (human), sequence (P09936 whole entry): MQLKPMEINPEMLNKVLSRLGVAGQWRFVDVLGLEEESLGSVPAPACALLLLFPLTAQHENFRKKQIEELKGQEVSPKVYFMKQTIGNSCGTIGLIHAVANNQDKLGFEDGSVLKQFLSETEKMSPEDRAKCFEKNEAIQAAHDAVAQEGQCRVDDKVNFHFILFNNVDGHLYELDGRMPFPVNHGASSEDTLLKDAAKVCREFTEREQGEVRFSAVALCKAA

Cofilin-1 (human), sequence (P23528 whole entry): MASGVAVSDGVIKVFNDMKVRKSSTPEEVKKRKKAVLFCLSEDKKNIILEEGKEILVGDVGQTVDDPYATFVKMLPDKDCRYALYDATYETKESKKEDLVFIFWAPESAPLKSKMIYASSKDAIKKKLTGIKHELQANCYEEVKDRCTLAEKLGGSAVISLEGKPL

On to “α-synuclein oligomers (αSOs) (from UniProt P37840 1-140) (complex)”, for which the Kd is 290 nM with Cofilin-1 (human) and 600 nM in assay [1].
